B1: Crk-L (endogenous, in BaF3 cells) (other, UniProt P47941 1-303, looked up)
chain: MSSARFDSSDRSAWYMGPVTRQEAQTRLQGQRHGMFLVRDSSTCPGDYVLSVSENSRVSHYIINSLPNRRFKIGDQEFDHLPALLEFYKIHYLDTTTLIEPAPRYPSPPVGSVSAPNLPTAEENLEYVRTLYDFPGNDAEDLPFKKGELLVIIEKPEEQWWSARNKDGRVGMIPVPYVEKLVRSSPHGKHGNRNSNSYGIPEPAHAYAQPQTTTPLPTVASTPGAAINPLPSTQNGPVFAKAIQKRVPCAYDKTALALEVGDIVKVTRMNINGQWEGEVNGRKGLFPFTHVKIFDPQNPDDNE
notes: Named in brackets next to Crk
B2: Gab2HA (HA-tagged wild type Gab2) (other, not shown: small tags and cut ends)
chain: MSGGGGDDVVCTGWLRKSPPEKKLRRYAWKKRWFILRSGRMSGDPDVLEYYKNEHSKKPLRIINLNLCEQVDAGLTFNKKELQDSFVFDIKTSERTFYLVAETEADMNKWVQSICQICGFNQAEESTDSLRNLSSASHGPRSSPAEFSSSQHLLRERKSSAPSHSSQPTLFTFEPPVSSHMQPTLSTSAPQEYLYLHQCISRRTENARSASFSQGTRQKSDTAVQKLAQSNGHCINGVGGQVHGFYSLPKPSRHNTEFKDSTYDLPRSLASHGHTKSSLTGSETDNEDVYTFKMPSNTLCRELGDLLVDNMDVPTTPLSAYQIPRTFTLDKNHNAMTVATPGDSAIAPPPRPPKPSQAETSQWGSIQQRPPISENSRSVAATIPRRNTLPAMDNSRLHRASSCETYEYPARGSGESASWSAEPPGKTAVGRSNSASSDDNYVPMNPGSSTLLAMERPGDNSQSVYIPMSPGPHHFDPLGYPSTALPIHRGPSRGSEIQPPPVNRNLKPDRKAKPTPLDLRNNTVIDELPFKSPVTKSWSRINSHTFNSSSSQYCRPISTQSITSTDSGDSEENYVPMQNPVSASPVPSGTNSPAPKKSTGSVDYLALDFQPGSPSPHRKPSTSSVTSDEKVDYVQVDKEKTQALQNTMQEWTDVRQSSEPSKGAKL
modifications: tyrosyl phosphorylated upon IL-3 stimulation
B3: Crk (endogenous, in BaF3 cells) (other, UniProt Q64010 2-304, looked up)
chain: AGNFDSEERSSWYWGRLSRQEAVALLQGQRHGVFLVRDSSTSPGDYVLSVSENSRVSHYIINSSGPRPPVPPSPAQPPPGVSPSRLRIGDQEFDSLPALLEFYKIHYLDTTTLIEPVARSRQGSGVILRQEEAEYVRALFDFNGNDEEDLPFKKGDILRIRDKPEEQWWNAEDSEGKRGMIPVPYVEKYRPASASVSALIGGNQEGSHPQPLGGPEPGPYAQPSVNTPLPNLQNGPIYARVIQKRVPNAYDKTALALEVGELVKVTKINVSGQWEGECNGKRGHFPFTHVRLLDQQNPDEDFS

Tests used:
[1] = molecular target: T1, Gab2 (endogenous, in BaF3, P210BCR-ABL BaF3 and BAC1.2F5 cells) (Mus musculus (Mouse), UniProt Q9Z1S8 1-665, tyrosyl phosphorylated upon stimulation; Y604 and Y633 'both sites are highly phosphorylated'); test: immunoprecipitation and immunoblotting, BaF3 cells
T1 construct: BaF3 is a murine line, and KIAA0571 is called the possible human homolog; also called p97; p97/Gab2

[2] = molecular target: B2; test: immunoprecipitation and immunoblotting, transfected BaF3 cells
[3] = molecular target: T2, SHP-2 (endogenous, in BaF3, P210BCR-ABL BaF3 and BAC1.2F5 cells) (UniProt P35235 2-593); test: cell-based or functional assay
T2 sequence (looked up): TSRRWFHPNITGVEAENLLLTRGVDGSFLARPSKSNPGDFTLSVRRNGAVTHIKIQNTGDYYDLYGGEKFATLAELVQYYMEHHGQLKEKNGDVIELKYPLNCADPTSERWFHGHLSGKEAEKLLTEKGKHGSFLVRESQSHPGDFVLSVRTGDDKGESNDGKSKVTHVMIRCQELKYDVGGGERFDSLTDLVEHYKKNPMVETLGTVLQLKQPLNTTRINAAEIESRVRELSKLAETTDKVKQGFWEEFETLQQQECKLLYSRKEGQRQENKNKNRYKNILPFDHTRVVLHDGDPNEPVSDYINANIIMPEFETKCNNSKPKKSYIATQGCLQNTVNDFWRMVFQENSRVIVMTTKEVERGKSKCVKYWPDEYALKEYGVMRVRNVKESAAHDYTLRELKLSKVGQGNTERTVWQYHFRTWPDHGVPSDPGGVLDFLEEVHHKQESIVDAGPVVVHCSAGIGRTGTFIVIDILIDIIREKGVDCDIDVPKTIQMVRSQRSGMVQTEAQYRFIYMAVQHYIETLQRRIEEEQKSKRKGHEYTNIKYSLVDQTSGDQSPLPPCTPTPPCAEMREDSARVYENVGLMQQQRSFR

B1
binding result [1]: no binding | binding result [2]: no binding

B2
basal c-fos luciferase activity [3]: ~2 fold

B3
binding result [1]: no binding | binding result [2]: no binding
